Values of other authors in US20020119915A1, “Nutritional intervention composition containing a source of proteinase inhibitor extending post meal satiety” (priority 1999, published 2002).

Test system: humans
Conditions: injection, 1981 study

B1: Cholecystokinin (peptide, UniProt P06307 21-115, looked up)
Cholecystokinin: QPVPPADPAGSGLQRAEEAPRRQLRVSQRTDGESRAHLGALLARYIQQARKAPSGRMSIVKNLQNLDPSHRISDRDYMGWMDFGRRSAEEYEYPS
modifications: Cholecystokinin
Question: With B1 as the molecule, how does the “Decrease of food intake” value read?
Answer: 16%
